Measurements: patent publication US20240294646A1

Each substance was assayed against Soluble FcγRIIb extracellular domain with C-terminal 10xHis tag (UniProt P31994) (assay: SPR; IIb/IIaR selectivity against control v27294).
Chain of Soluble FcγRIIb extracellular domain with C-terminal 10xHis tag (P31994 other isoform, or with tags, fused parts or gaps): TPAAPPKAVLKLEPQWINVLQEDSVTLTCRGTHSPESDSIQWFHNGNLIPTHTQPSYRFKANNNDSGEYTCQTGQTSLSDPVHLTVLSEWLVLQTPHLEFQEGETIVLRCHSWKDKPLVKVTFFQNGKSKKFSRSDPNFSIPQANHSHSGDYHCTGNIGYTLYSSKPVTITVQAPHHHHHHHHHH

Point of comparison: “Variant v26743, A_P271K_strat2, one-armed trastuzumab antibody”, IIb Selectivity Improvement wrt Control 1 fold. Against it:
- Variant v26749, A_E272I_strat2, one-armed trastuzumab antibody — the same, 1 fold
- Variant v26717, A_D270W_strat2, one-armed trastuzumab antibody — higher, 1.1 fold
- Variant v26734, A_P271W_strat2, one-armed trastuzumab antibody — lower, 0.9 fold
- Variant v26722, A_D270N_strat2, one-armed trastuzumab antibody — higher, 1.3 fold
- Variant v26726, A_D270H_strat2, one-armed trastuzumab antibody — higher, 1.1 fold
- Variant v26730, A_P271V_strat2, one-armed trastuzumab antibody — higher, 1.1 fold
- Variant v26719, A_D270T_strat2, one-armed trastuzumab antibody — the same, 1 fold
- Variant v26741, A_P271E_strat2, one-armed trastuzumab antibody — lower, 0.9 fold
- Variant v26746, A_E272A_strat2, one-armed trastuzumab antibody — higher, 1.2 fold
- Variant v26723, A_D270E_strat2, one-armed trastuzumab antibody — higher, 1.1 fold
- Variant v26760, A_E272H_strat2, one-armed trastuzumab antibody — higher, 1.1 fold
- Variant v26716, A_D270F_strat2, one-armed trastuzumab antibody — the same, 1 fold
- Variant v26742, A_P271R_strat2, one-armed trastuzumab antibody — lower, 0.8 fold
- Variant v26721, A_D270Q_strat2, one-armed trastuzumab antibody — higher, 1.1 fold
- Variant v26744, A_P271H_strat2, one-armed trastuzumab antibody — higher, 1.1 fold
- Variant v26740, A_P271D_strat2, one-armed trastuzumab antibody — higher, 1.1 fold
- Variant v26715, A_D270I_strat2, one-armed trastuzumab antibody — higher, 1.1 fold

Each substance was assayed against Soluble FcγRIIb extracellular domain with C-terminal 10xHis tag (UniProt P31994) (assay: SPR, antibody captured on HER2, receptor as analyte; affinity fold over wild-type v16463).

Point of comparison: “Variant v26715, A_D270I_strat2, one-armed trastuzumab antibody”, IIb-Fold 57.9 fold. Against it:
- Variant v26749, A_E272I_strat2, one-armed trastuzumab antibody — higher, 83.8 fold
- Variant v26743, A_P271K_strat2, one-armed trastuzumab antibody — lower, 55.7 fold
- Variant v26717, A_D270W_strat2, one-armed trastuzumab antibody — lower, 53.5 fold
- Variant v26734, A_P271W_strat2, one-armed trastuzumab antibody — lower, 52.5 fold
- Variant v26722, A_D270N_strat2, one-armed trastuzumab antibody — higher, 67.4 fold
- Variant v26726, A_D270H_strat2, one-armed trastuzumab antibody — higher, 61.7 fold
- Variant v26730, A_P271V_strat2, one-armed trastuzumab antibody — lower, 54.4 fold
- Variant v26719, A_D270T_strat2, one-armed trastuzumab antibody — higher, 64.2 fold
- Variant v26741, A_P271E_strat2, one-armed trastuzumab antibody — higher, 59.3 fold
- Variant v26746, A_E272A_strat2, one-armed trastuzumab antibody — higher, 70.8 fold
- Variant v26723, A_D270E_strat2, one-armed trastuzumab antibody — higher, 109 fold
- Variant v26760, A_E272H_strat2, one-armed trastuzumab antibody — higher, 74.1 fold
- Variant v26716, A_D270F_strat2, one-armed trastuzumab antibody — higher, 86.7 fold
- Variant v26742, A_P271R_strat2, one-armed trastuzumab antibody — lower, 47.1 fold
- Variant v26721, A_D270Q_strat2, one-armed trastuzumab antibody — lower, 51.7 fold
- Variant v26744, A_P271H_strat2, one-armed trastuzumab antibody — higher, 59.3 fold
- Variant v26740, A_P271D_strat2, one-armed trastuzumab antibody — lower, 50.5 fold

These substances were tested against Soluble FcγRIIaR extracellular domain with C-terminal 10xHis tag (UniProt P12318) in the same assay as above.
Chain of Soluble FcγRIIaR extracellular domain with C-terminal 10xHis tag (P12318 other isoform, or with tags, fused parts or gaps): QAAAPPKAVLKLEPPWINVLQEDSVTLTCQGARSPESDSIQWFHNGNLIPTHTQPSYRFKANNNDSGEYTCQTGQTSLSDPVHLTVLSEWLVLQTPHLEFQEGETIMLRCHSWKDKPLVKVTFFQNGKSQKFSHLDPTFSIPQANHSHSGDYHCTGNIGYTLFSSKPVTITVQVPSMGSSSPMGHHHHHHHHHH

Point of comparison: “Variant v26719, A_D270T_strat2, one-armed trastuzumab antibody”, IIaR-fold 4.9 fold. Against it:
- Variant v26749, A_E272I_strat2, one-armed trastuzumab antibody — higher, 6.1 fold
- Variant v26743, A_P271K_strat2, one-armed trastuzumab antibody — lower, 4.3 fold
- Variant v26717, A_D270W_strat2, one-armed trastuzumab antibody — lower, 3.7 fold
- Variant v26734, A_P271W_strat2, one-armed trastuzumab antibody — lower, 4.3 fold
- Variant v26722, A_D270N_strat2, one-armed trastuzumab antibody — lower, 4 fold
- Variant v26726, A_D270H_strat2, one-armed trastuzumab antibody — lower, 4.1 fold
- Variant v26730, A_P271V_strat2, one-armed trastuzumab antibody — lower, 3.6 fold
- Variant v26741, A_P271E_strat2, one-armed trastuzumab antibody — higher, 5.1 fold
- Variant v26746, A_E272A_strat2, one-armed trastuzumab antibody — lower, 4.5 fold
- Variant v26723, A_D270E_strat2, one-armed trastuzumab antibody — higher, 7.3 fold
- Variant v26760, A_E272H_strat2, one-armed trastuzumab antibody — the same, 4.9 fold
- Variant v26716, A_D270F_strat2, one-armed trastuzumab antibody — higher, 6.4 fold
- Variant v26742, A_P271R_strat2, one-armed trastuzumab antibody — lower, 4.4 fold
- Variant v26721, A_D270Q_strat2, one-armed trastuzumab antibody — lower, 3.6 fold
- Variant v26744, A_P271H_strat2, one-armed trastuzumab antibody — lower, 3.9 fold
- Variant v26740, A_P271D_strat2, one-armed trastuzumab antibody — lower, 3.4 fold
- Variant v26715, A_D270I_strat2, one-armed trastuzumab antibody — lower, 3.8 fold

Each substance was assayed against Soluble FcγRIIb extracellular domain with C-terminal 10xHis tag (UniProt P31994) (assay: SPR; FcγRIIb affinity fold against control v27294).

Point of comparison: “Variant v26717, A_D270W_strat2, one-armed trastuzumab antibody”, IIb-Fold wrt Control 0.6 fold. Against it:
- Variant v26749, A_E272I_strat2, one-armed trastuzumab antibody — higher, 0.9 fold
- Variant v26743, A_P271K_strat2, one-armed trastuzumab antibody — the same, 0.6 fold
- Variant v26734, A_P271W_strat2, one-armed trastuzumab antibody — the same, 0.6 fold
- Variant v26722, A_D270N_strat2, one-armed trastuzumab antibody — higher, 0.7 fold
- Variant v26726, A_D270H_strat2, one-armed trastuzumab antibody — higher, 0.7 fold
- Variant v26730, A_P271V_strat2, one-armed trastuzumab antibody — the same, 0.6 fold
- Variant v26719, A_D270T_strat2, one-armed trastuzumab antibody — higher, 0.7 fold
- Variant v26741, A_P271E_strat2, one-armed trastuzumab antibody — the same, 0.6 fold
- Variant v26746, A_E272A_strat2, one-armed trastuzumab antibody — higher, 0.8 fold
- Variant v26723, A_D270E_strat2, one-armed trastuzumab antibody — higher, 1.2 fold
- Variant v26760, A_E272H_strat2, one-armed trastuzumab antibody — higher, 0.8 fold
- Variant v26716, A_D270F_strat2, one-armed trastuzumab antibody — higher, 0.9 fold
- Variant v26742, A_P271R_strat2, one-armed trastuzumab antibody — lower, 0.5 fold
- Variant v26721, A_D270Q_strat2, one-armed trastuzumab antibody — the same, 0.6 fold
- Variant v26744, A_P271H_strat2, one-armed trastuzumab antibody — the same, 0.6 fold
- Variant v26740, A_P271D_strat2, one-armed trastuzumab antibody — lower, 0.5 fold
- Variant v26715, A_D270I_strat2, one-armed trastuzumab antibody — the same, 0.6 fold

These substances were tested against Soluble FcγRIIb extracellular domain with C-terminal 10xHis tag (UniProt P31994) (assay: SPR; IIb-Fold / IIaR-Fold (FcγRIIb over FcγRIIaR)).

Point of comparison: “Variant v26740, A_P271D_strat2, one-armed trastuzumab antibody”, IIb Selectivity 14.9 fold. Against it:
- Variant v26749, A_E272I_strat2, one-armed trastuzumab antibody — lower, 13.7 fold
- Variant v26743, A_P271K_strat2, one-armed trastuzumab antibody — lower, 12.9 fold
- Variant v26717, A_D270W_strat2, one-armed trastuzumab antibody — lower, 14.5 fold
- Variant v26734, A_P271W_strat2, one-armed trastuzumab antibody — lower, 12.3 fold
- Variant v26722, A_D270N_strat2, one-armed trastuzumab antibody — higher, 16.7 fold
- Variant v26726, A_D270H_strat2, one-armed trastuzumab antibody — the same, 14.9 fold
- Variant v26719, A_D270T_strat2, one-armed trastuzumab antibody — lower, 13.2 fold
- Variant v26741, A_P271E_strat2, one-armed trastuzumab antibody — lower, 11.7 fold
- Variant v26746, A_E272A_strat2, one-armed trastuzumab antibody — higher, 15.9 fold
- Variant v26760, A_E272H_strat2, one-armed trastuzumab antibody — higher, 15.3 fold
- Variant v26716, A_D270F_strat2, one-armed trastuzumab antibody — lower, 13.5 fold
- Variant v26742, A_P271R_strat2, one-armed trastuzumab antibody — lower, 10.7 fold
- Variant v26721, A_D270Q_strat2, one-armed trastuzumab antibody — lower, 14.6 fold
- Variant v26744, A_P271H_strat2, one-armed trastuzumab antibody — higher, 15.1 fold
- Variant v26715, A_D270I_strat2, one-armed trastuzumab antibody — higher, 15.2 fold
